Data taken from patent US20060026702A1, “Phosphoinositide 3-kinase mediated inhibition of GPCRs” (DUKE UNIVERSITY, priority 2002, published 2006).

Biological target: endogenous βARK1 of HEK 293 cells (UniProt P25098)
Assay: cell-based or functional assay

endogenous βARK1 of HEK 293 cells, sequence (P25098 whole entry): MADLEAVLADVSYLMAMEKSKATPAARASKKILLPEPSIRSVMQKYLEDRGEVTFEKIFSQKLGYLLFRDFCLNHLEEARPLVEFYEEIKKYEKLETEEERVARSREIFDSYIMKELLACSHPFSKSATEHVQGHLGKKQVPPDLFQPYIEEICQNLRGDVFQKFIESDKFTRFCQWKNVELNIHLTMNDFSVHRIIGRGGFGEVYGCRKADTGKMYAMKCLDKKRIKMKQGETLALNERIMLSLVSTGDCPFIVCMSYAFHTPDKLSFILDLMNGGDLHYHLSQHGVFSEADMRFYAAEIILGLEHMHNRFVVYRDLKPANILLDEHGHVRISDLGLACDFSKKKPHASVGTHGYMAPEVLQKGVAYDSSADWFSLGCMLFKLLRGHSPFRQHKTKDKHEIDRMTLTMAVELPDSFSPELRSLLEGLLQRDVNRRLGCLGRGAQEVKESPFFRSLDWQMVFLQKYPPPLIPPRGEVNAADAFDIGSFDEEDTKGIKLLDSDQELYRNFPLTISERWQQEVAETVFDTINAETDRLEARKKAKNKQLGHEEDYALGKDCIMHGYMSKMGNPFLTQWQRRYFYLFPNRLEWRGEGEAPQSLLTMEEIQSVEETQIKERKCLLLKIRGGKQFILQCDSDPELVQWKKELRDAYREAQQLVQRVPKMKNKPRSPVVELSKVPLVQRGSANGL

rate of agonist-dependent β2AR sequestration (125I-Cyanopindolol binding) with HEAT protein overexpressed: > 60%
Substance: endogenous PI3K of HEK 293 cells (enzyme)
